From patent US20260275312, “CRISPR NUCLEASE POLYPEPTIDES AND GENE EDITING SYSTEMS COMPRISING SUCH” (ARBOR BIOTECHNOLOGIES, INC., published 2026)
Residue numbers refer to the chain shown, from its start.

What was measured:
[1] = target: T1, Nuclease H L54R/L323R/T783R (synthetic construct, L54R,L323R,T783R); test: cell_activity; HEK293T; PAM AAC; details: tags: N-term SV40 NLS, XTEN linker + C-term nucleoplasmin NLS
T1 chain: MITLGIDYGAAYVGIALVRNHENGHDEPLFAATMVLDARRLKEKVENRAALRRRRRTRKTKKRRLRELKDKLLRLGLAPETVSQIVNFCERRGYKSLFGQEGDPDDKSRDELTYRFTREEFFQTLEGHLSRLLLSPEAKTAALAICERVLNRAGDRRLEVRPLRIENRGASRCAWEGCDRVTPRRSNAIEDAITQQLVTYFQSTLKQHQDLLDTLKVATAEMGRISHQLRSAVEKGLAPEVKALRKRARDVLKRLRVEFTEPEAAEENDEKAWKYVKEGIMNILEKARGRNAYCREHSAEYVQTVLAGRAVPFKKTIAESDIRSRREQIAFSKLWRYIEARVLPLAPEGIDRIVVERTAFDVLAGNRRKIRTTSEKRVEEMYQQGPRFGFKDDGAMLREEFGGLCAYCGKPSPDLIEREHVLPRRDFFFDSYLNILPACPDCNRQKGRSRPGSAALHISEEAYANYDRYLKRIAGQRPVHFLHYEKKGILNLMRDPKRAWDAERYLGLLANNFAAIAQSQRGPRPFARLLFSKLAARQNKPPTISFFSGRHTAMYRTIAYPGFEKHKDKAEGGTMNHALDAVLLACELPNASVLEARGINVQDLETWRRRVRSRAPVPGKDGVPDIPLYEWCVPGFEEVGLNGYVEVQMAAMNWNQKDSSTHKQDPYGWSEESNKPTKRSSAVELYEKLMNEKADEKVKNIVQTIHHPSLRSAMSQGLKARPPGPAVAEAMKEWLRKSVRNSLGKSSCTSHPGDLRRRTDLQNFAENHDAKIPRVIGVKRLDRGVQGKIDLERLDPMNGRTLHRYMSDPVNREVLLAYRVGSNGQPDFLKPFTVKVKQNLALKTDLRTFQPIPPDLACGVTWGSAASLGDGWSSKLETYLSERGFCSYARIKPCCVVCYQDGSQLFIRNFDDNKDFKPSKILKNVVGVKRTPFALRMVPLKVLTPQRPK
Method: (§1) HEK293T cells were transfected with plasmids expressing the Nuclease H polypeptides and the gRNAs provided herein following the methods provided in Example 1 above. Gene editing efficiencies were determined by NGS following the methods also provided in Example 1. The NGS results were analyzed also following the methods provided in Example 1 above.
(§2) Each Nuclease H variant and RNA guide (see Table 16) was cloned as described in Example 9. HEK293T cells were further transfected, followed by NGS analysis, as described in Example 10. For each target, indel ratios, referring to the percentage of NGS reads comprising indels, were calculated for the reference Nuclease H (SEQ ID NO: 64) and for each Nuclease H variant. The indel ratios shown in Table 18 were calculated as the average of two bioreplicates, each of which contained two technical replicates.

[2] = target: T2, Nuclease H T783R/E43R/A170R (synthetic construct, T783R,E43R,A170R); test: cell_activity; HEK293T; PAM AAC; details: tags: N-term SV40 NLS, XTEN linker + C-term nucleoplasmin NLS
T2 chain: T1 chain with E43R, R54L, A170R, R323L
Method: as §1, §2

B1: H AAVS1-T5 RNA guide ; AAVS1-T5 target (H) (ssRNA ; dsDNA)
RNA: GGCUAUAAUCCAUGCUGACCGUUUCAAUCAACCUGAUCUCUCUGCUUGCGCUGCAGGCUUCAUAAGAUCAGUAGGUUGAAAAGAGCAUCCGUCCGACAUGCACUCCGGGAUGGGGCAGUCCCGGCUCUUGCGGUUCCCGAUGCAGUUAUGUGUCCGCGGAACACGGUGUCGGACACGUCGCAAGACAGGAUGUGAGCCCAUUAUCCACAUUAGGAUCAAUGUACGCAUGAGCAGUCCGCAAUGCCGGGGACGCU
DNA 1: GGCTATAATCCATGCTGACC
DNA 2: GGTCAGCATGGATTATAGCC
activity [1]: 0.4 indel ratio
activity [2]: 0.184 indel ratio
